From the supplement of paper PMC10065799, “High-throughput profiling of sequence recognition by tyrosine kinases and SH2 domains using bacterial peptide display” (eLife, 2023)

Legend:
[1] = tested on: AncSZ; assay: phosphorylation enrichment, bacterial display (enrichment ratio); higher = better substrate or ligand; peptides without Tyr show the background
[2] = biological target: EPHB1 (UniProt P54762); assay: as above
[3] = biological target: EPHB2 (UniProt P29323); assay: as above
[4] = biological target: FGFR1 (UniProt P11362); assay: as above
[5] = biological target: FGFR3 (UniProt P22607); assay: as above
[6] = tested on: Fer (mouse); assay: as above
[7] = biological target: Fes (UniProt P07332); assay: as above
[8] = biological target: Fyn (UniProt P06241); assay: as above
[9] = biological target: Hck (UniProt P08631); assay: as above
[10] = biological target: Jak2 (UniProt O60674); assay: as above
[11] = biological target: MERTK (UniProt Q12866); assay: as above
[12] = tested on: c-Abl (mouse); assay: as above
[13] = tested on: c-Src; assay: as above
[14] = biological target: Grb2 SH2 (UniProt P62993); assay: SH2 binding enrichment of the phosphorylated peptide, bacterial display (enrichment ratio); higher = better substrate or ligand; peptides without Tyr show the background
[15] = biological target: SHP2-C SH2; assay: as above
[16] = biological target: c-Src SH2; assay: as above
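Wherever SH2 binding enrichment of the phosphorylated peptide, bacterial display is given: peptide library displayed on the E. coli surface as eCPX fusions, selected cells deep-sequenced, score is each peptide's frequency after selection divided by its frequency in the input.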
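Wherever phosphorylation enrichment, bacterial display is given: 11-residue human phosphosite peptides and single-mutation variants displayed on the E. coli surface, counted by deep sequencing, each peptide's frequency after selection divided by its frequency in the unselected input library; frequency after pTyr selection over input frequency; kinase dosed for 20-30% of maximal phosphorylation in three min.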

EPHB2, sequence (P29323 whole entry, looked up): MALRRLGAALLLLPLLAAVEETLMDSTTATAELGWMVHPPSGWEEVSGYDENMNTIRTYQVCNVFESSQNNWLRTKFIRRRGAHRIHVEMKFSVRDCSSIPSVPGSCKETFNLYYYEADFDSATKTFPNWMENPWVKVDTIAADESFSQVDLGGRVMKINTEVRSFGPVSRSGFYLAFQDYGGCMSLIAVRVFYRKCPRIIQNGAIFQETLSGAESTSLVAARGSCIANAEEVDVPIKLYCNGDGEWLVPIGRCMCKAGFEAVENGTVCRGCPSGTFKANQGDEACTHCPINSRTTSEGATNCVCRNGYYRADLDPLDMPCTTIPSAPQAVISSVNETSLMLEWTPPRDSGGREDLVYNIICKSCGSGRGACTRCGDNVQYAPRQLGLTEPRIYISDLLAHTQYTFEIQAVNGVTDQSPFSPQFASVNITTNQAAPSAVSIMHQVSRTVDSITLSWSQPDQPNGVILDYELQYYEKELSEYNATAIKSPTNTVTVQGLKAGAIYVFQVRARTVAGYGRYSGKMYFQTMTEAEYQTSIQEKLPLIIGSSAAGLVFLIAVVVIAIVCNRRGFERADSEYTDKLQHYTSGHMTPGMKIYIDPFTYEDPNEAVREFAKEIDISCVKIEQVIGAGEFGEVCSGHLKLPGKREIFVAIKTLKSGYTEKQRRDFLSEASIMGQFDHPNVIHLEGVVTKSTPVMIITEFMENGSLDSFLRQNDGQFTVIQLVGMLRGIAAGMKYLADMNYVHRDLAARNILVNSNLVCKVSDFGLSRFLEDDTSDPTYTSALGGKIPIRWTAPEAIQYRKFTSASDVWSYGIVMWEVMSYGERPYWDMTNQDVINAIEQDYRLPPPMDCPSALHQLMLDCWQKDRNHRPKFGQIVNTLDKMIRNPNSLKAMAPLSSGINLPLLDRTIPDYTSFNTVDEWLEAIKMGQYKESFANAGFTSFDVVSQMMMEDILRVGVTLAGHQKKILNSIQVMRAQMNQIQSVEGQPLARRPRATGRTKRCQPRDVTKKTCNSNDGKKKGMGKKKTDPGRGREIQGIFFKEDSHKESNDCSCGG
Jak2, sequence (O60674 whole entry, looked up): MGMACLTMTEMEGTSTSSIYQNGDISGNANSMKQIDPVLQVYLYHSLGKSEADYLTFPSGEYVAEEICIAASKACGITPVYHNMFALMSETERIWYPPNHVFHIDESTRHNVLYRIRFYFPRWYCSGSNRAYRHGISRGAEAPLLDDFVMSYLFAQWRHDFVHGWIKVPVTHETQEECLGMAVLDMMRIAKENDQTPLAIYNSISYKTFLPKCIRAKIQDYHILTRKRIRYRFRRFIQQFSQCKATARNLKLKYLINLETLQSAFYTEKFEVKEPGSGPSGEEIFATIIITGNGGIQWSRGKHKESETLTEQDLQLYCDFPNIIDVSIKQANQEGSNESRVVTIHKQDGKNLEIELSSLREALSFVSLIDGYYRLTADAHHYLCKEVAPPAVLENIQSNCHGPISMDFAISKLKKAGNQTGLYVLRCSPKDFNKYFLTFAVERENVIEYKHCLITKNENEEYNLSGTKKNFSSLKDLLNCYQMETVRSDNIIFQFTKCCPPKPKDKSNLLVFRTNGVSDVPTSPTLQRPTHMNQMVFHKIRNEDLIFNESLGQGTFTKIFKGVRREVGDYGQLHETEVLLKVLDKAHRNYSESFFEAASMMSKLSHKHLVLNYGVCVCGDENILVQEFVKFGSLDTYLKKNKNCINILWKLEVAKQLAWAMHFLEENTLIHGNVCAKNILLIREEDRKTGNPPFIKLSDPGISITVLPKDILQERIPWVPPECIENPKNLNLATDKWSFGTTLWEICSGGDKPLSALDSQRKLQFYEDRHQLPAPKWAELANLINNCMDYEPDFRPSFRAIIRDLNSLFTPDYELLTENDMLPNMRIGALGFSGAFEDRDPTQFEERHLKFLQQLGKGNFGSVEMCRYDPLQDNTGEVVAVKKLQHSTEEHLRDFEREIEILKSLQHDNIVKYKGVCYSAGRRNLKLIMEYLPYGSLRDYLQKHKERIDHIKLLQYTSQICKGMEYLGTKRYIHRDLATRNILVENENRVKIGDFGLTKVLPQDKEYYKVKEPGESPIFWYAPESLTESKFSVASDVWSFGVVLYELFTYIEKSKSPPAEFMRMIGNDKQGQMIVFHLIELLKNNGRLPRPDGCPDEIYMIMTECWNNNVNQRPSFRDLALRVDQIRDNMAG
EPHB1, sequence (P54762 whole entry, looked up): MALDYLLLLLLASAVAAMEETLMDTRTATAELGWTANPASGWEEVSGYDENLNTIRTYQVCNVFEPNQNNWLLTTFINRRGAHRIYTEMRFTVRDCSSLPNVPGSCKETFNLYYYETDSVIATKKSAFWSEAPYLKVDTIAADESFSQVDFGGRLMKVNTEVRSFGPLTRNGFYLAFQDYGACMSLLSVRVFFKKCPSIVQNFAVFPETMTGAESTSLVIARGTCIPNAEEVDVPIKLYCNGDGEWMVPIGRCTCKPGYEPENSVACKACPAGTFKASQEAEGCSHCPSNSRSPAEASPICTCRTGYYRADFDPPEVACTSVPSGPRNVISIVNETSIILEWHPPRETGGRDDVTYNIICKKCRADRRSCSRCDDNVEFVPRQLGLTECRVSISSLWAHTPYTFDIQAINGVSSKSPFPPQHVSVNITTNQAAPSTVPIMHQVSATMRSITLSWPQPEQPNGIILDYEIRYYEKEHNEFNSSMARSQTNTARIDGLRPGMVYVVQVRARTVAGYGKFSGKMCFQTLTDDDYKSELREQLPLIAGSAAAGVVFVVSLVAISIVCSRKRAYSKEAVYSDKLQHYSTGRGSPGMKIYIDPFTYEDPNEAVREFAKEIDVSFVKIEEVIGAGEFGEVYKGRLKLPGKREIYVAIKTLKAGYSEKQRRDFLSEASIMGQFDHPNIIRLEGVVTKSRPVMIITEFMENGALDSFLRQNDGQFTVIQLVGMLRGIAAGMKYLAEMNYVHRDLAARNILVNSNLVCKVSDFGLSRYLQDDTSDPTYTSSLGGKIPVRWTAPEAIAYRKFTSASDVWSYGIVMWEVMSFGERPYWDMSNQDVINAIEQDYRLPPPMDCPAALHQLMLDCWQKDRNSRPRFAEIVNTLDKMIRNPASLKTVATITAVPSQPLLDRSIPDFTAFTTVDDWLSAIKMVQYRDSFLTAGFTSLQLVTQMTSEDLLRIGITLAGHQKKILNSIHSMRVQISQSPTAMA
MERTK, sequence (Q12866 whole entry, looked up): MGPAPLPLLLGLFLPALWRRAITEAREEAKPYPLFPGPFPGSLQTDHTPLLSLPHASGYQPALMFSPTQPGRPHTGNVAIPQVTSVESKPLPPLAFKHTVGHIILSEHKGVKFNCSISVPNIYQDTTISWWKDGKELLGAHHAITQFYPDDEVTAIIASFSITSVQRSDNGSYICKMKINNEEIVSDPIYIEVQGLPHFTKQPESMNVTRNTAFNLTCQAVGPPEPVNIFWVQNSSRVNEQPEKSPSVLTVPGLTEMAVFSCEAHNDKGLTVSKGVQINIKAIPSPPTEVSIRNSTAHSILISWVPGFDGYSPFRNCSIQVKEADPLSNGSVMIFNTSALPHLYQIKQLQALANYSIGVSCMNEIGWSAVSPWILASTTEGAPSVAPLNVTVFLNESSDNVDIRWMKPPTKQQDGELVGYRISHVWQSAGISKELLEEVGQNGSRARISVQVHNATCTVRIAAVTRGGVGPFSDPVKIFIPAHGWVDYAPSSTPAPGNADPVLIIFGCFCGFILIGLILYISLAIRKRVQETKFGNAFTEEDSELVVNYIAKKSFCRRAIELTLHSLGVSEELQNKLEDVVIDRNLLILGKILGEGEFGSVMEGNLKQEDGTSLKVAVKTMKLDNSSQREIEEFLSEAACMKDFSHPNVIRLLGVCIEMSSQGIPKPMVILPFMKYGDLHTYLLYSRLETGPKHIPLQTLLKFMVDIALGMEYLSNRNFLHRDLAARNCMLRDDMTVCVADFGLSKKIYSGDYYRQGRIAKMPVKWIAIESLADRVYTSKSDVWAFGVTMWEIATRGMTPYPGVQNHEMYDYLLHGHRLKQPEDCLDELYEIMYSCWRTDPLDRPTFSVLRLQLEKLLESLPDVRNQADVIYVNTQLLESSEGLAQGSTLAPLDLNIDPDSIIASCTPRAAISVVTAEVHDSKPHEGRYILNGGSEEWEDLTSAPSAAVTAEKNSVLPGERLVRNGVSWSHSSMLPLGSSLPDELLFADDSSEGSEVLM
Fes, sequence (P07332 whole entry, looked up): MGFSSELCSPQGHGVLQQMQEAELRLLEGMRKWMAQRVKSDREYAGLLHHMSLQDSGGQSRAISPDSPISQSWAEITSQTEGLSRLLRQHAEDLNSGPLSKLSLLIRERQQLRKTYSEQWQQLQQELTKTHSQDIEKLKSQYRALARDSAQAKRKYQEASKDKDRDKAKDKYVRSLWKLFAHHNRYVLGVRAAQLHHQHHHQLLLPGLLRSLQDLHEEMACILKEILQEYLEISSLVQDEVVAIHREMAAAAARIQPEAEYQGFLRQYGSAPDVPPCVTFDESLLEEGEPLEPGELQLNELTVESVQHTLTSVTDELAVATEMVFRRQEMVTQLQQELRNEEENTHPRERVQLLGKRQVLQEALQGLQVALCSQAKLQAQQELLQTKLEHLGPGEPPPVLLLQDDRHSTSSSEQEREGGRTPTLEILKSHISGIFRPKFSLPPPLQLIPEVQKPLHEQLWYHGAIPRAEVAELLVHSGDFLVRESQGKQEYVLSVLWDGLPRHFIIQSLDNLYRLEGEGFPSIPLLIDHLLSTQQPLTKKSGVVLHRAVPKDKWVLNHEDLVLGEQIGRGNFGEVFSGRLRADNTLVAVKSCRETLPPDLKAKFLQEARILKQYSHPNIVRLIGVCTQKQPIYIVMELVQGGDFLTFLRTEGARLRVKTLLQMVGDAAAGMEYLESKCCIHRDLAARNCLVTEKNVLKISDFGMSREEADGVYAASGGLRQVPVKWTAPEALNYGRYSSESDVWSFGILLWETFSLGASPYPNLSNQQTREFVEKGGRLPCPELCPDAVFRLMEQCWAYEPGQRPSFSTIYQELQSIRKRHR

| Sequence | SH2 binding enrichment [14] | SH2 binding enrichment [15] | SH2 binding enrichment [16] | phosphorylation enrichment [1] | phosphorylation enrichment [2] | phosphorylation enrichment [3] | phosphorylation enrichment [4] | phosphorylation enrichment [5] | phosphorylation enrichment [6] | phosphorylation enrichment [7] | phosphorylation enrichment [8] | phosphorylation enrichment [9] | phosphorylation enrichment [10] | phosphorylation enrichment [11] | phosphorylation enrichment [12] | phosphorylation enrichment [13] |
| --- | --- | --- | --- | --- | --- | --- | --- | --- | --- | --- | --- | --- | --- | --- | --- | --- |
| HQIQSYTCEID [DES_Y331] | 0.951 | 0.786 | 0.774 | 0.927 | 0.7 | 0.802 | 0.822 | 0.882 | 0.349 | 1.27 | 0.628 | 0.675 | 1.44 | 0.595 | 0.767 | 0.502 |
| HYEDGYPGGSD [CTNND1_Y221] | 0.915 | 0.786 | 0.924 | 1.75 | 0.796 | 0.762 | 0.819 | 0.945 | 0.908 | 1.28 | 0.799 | 0.629 | 1.44 | 0.852 | 1.12 | 1.13 |
| IAAEFYDNLPH [DEGS1_Y284_YF] | 0.774 | 0.697 | 0.77 | 0.894 | 0.531 | 0.68 | 0.66 | 0.682 | 1.12 | 0.79 | 0.72 | 3.88 | 0.559 | 0.687 | 0.535 | 0.723 |
| IDQDKYAVRFI [FLNA_Y2388] | 0.865 | 0.696 | 0.54 | 0.78 | 0.459 | 0.458 | 0.425 | 0.545 | 0.473 | 0.787 | 0.488 | 0.524 | 0.635 | 0.379 | 0.566 | 0.393 |
| IEDPYYGNDFD [ACP1_Y133_S137F] | 0.863 | 0.617 | 0.68 | 1.65 | 0.832 | 0.859 | 1.6 | 1.7 | 0.786 | 1.47 | 1.65 | 1.02 | 1.43 | 0.513 | 0.93 | 2.94 |
| IGEGTYGVVYK [CDK2_Y15] | 0.73 | 0.535 | 0.507 | 0.907 | 2.67 | 7.28 | 0.551 | 0.67 | 1.73 | 0.896 | 10.6 | 7.9 | 0.756 | 2.01 | 0.63 | 5.96 |
| IHKEFYDGLFP [BCR_Y561] | 0.946 | 0.77 | 0.913 | 1.08 | 0.802 | 0.743 | 0.606 | 0.853 | 0.699 | 1.27 | 0.57 | 1.17 | 1.06 | 0.823 | 0.864 | 0.878 |
| IIEDPYFGNDF [ACP1_Y132_S137F_YF] | 0.769 | 0.662 | 0.519 | 1.36 | 0.664 | 0.695 | 0.791 | 0.908 | 0.757 | 1.43 | 1.11 | 0.823 | 1.3 | 0.487 | 0.871 | 2.98 |
| IIEDPYYGNDF [ACP1_Y132_S137F] | 0.958 | 0.488 | 0.726 | 1.79 | 0.683 | 0.666 | 3.18 | 2.88 | 1.42 | 1.48 | 2.71 | 1.55 | 1.48 | 1.15 | 1.09 | 4.91 |
| ILDEAYVMAIV [EGFR_Y764_S768I] | 0.791 | 0.581 | 0.432 | 1.5 | 0.62 | 0.686 | 0.963 | 1.02 | 0.968 | 1.35 | 0.662 | 0.531 | 1.39 | 0.454 | 0.84 | 0.829 |
| IMNLLYHVVGW [GBA_Y412_T408M] | 1.61 | 1.66 | 1.41 | 0.963 | 4.93 | 2.71 | 6.14 | 5.38 | 2.16 | 0.872 | 4.49 | 6.31 | 2.43 | 7.65 | 2.74 | 5.2 |
| INQGPYENHSV [ATP6V1B1_Y462_R465H] | 4.77 | 0.777 | 2.07 | 0.646 | 0.436 | 0.639 | 0.441 | 0.524 | 9.94 | 0.804 | 0.471 | 0.4 | 0.68 | 0.55 | 0.54 | 0.524 |
| INSLKYAYNIS [EIF2B5_Y583] | 0.778 | 0.598 | 0.665 | 0.476 | 0.403 | 0.368 | 0.425 | 0.474 | 0.392 | 0.762 | 0.414 | 0.401 | 0.569 | 0.398 | 0.421 | 0.412 |
| IQKWEYVPLGP [FAH_Y244] | 0.834 | 0.558 | 0.656 | 1.02 | 0.612 | 0.521 | 1.11 | 0.822 | 0.454 | 1.01 | 0.514 | 0.48 | 1.43 | 0.597 | 0.791 | 0.453 |
| ISKQEYDEAGP [ACTC1_Y364] | 0.921 | 0.718 | 6.16 | 1.28 | 0.65 | 0.741 | 0.522 | 0.819 | 0.627 | 1.29 | 0.602 | 0.616 | 1.31 | 0.518 | 0.79 | 0.598 |
| ITRDEYPSNPM [CEMIP2_Y1015] | 0.717 | 0.629 | 0.475 | 0.688 | 0.413 | 0.369 | 0.426 | 0.467 | 0.344 | 0.589 | 0.413 | 0.352 | 0.497 | 0.329 | 0.414 | 0.345 |
| IVKAYYVRARA [AIPL1_Y268] | 0.976 | 0.923 | 0.521 | 1.01 | 0.358 | 0.47 | 0.466 | 0.471 | 0.396 | 0.936 | 0.466 | 0.419 | 0.743 | 0.502 | 0.512 | 0.361 |

Now from value to sequence, other results behind:

| SH2 binding enrichment [14] | SH2 binding enrichment [15] | SH2 binding enrichment [16] | Sequence | phosphorylation enrichment [1] | phosphorylation enrichment [2] | phosphorylation enrichment [3] | phosphorylation enrichment [4] | phosphorylation enrichment [5] | phosphorylation enrichment [6] | phosphorylation enrichment [7] | phosphorylation enrichment [8] | phosphorylation enrichment [9] | phosphorylation enrichment [10] | phosphorylation enrichment [11] | phosphorylation enrichment [12] | phosphorylation enrichment [13] |
| --- | --- | --- | --- | --- | --- | --- | --- | --- | --- | --- | --- | --- | --- | --- | --- | --- |
| 0.889 | 1.2 | 1.53 | HLDRSYSYSYS [PEAR1_Y890_R885H] | 0.718 | 0.603 | 0.477 | 0.558 | 0.66 | 0.401 | 0.583 | 0.424 | 0.424 | 1.02 | 0.583 | 0.49 | 0.474 |
| 1.03 | 0.624 | 0.474 | HLNLTYRILSF [MMP23B_Y95_F91L] | 1.43 | 0.673 | 0.664 | 0.645 | 1.27 | 0.605 | 1.68 | 0.694 | 0.54 | 1.51 | 0.42 | 1.08 | 0.491 |
| 0.794 | 0.757 | 0.563 | HTLMKYTDGDQ [PUS7L_Y94_I92M] | 1.34 | 1.17 | 0.634 | 0.813 | 0.897 | 0.666 | 1.48 | 0.595 | 0.682 | 1.26 | 0.463 | 1.08 | 0.788 |
| 0.746 | 0.609 | 10.6 | IETGKYEILTE | 1.18 | 0.684 | 0.601 | 0.519 | 0.78 | 0.703 | 1.34 | 0.429 | 0.478 | 1.14 | 0.585 | 0.807 | 0.495 |
| 0.918 | 0.672 | 0.472 | IFETDYFRKGG [INSR_Y1189_YF] | 0.988 | 0.568 | 0.626 | 0.536 | 0.686 | 0.581 | 0.938 | 0.5 | 0.529 | 0.934 | 0.436 | 0.741 | 0.539 |
| 0.84 | 0.883 | 0.53 | IGEVVYQRAAM [GRIN2A_Y502_V506A] | 0.841 | 0.442 | 0.425 | 0.438 | 0.394 | 0.78 | 0.824 | 0.9 | 1.66 | 0.595 | 0.441 | 5.89 | 1.27 |
| 0.885 | 0.659 | 0.487 | IGHHAYGDQFR [IDH1_Y135_R132H_YF] | 0.63 | 0.444 | 0.417 | 0.414 | 0.477 | 0.371 | 0.618 | 0.346 | 0.381 | 0.503 | 0.397 | 0.516 | 0.373 |
| 0.996 | 0.633 | 0.817 | IGRHAYGDQFR [IDH1_Y135_YF] | 0.449 | 0.367 | 0.391 | 0.331 | 0.383 | 0.339 | 0.507 | 0.381 | 0.341 | 0.487 | 0.296 | 0.516 | 0.407 |
| 0.848 | 0.521 | 0.433 | IGSHAYGDQYR [IDH1_Y135_R132S] | 0.583 | 0.497 | 0.419 | 0.45 | 0.517 | 0.374 | 0.619 | 0.464 | 0.342 | 0.554 | 0.406 | 0.576 | 0.43 |
| 0.76 | 0.914 | 0.451 | IHTDAYVRAMT [RPE65_Y89_R85H] | 0.475 | 0.35 | 0.414 | 0.389 | 0.401 | 0.407 | 0.589 | 0.375 | 0.397 | 0.442 | 0.319 | 0.474 | 0.363 |
| 0.848 | 0.74 | 0.484 | IIGNGYFFHVF [MYBPC3_Y1135_R1138H_YF] | 1.11 | 0.569 | 0.547 | 0.4 | 0.699 | 0.398 | 1.09 | 0.313 | 0.314 | 1.07 | 0.254 | 0.776 | 0.34 |
| 0.758 | 0.559 | 0.5 | IIQRAYRGHLL [SCN1A_Y1926_R1928G] | 0.483 | 0.38 | 0.327 | 0.447 | 0.628 | 0.387 | 0.671 | 0.429 | 0.428 | 0.555 | 0.47 | 0.437 | 0.432 |
| 0.865 | 0.456 | 0.416 | IKNFKYGIEEH [GJA1_Y137_K134N] | 0.621 | 0.351 | 0.508 | 0.388 | 0.549 | 0.311 | 0.715 | 0.335 | 0.414 | 0.682 | 0.383 | 0.38 | 0.368 |
| 0.909 | 0.895 | 0.524 | IKNPQYFSDAC [NTRK1_Y496_E492K] | 0.648 | 0.37 | 0.415 | 0.548 | 0.591 | 0.37 | 0.74 | 0.464 | 0.418 | 0.634 | 0.344 | 0.464 | 0.473 |
| 1.3 | 0.985 | 0.794 | ILCTVYAFKTR [GRM3_Y754] | 1.52 | 0.577 | 0.478 | 0.543 | 0.715 | 0.61 | 1.49 | 0.528 | 0.624 | 1.33 | 0.609 | 0.696 | 0.599 |
| 0.749 | 0.675 | 0.66 | IMWDSYTTNKV [GNB3_Y85_V81M] | 0.945 | 0.544 | 0.437 | 0.451 | 0.64 | 0.392 | 0.885 | 0.33 | 0.421 | 0.91 | 0.305 | 0.553 | 0.369 |
